Results from paper PMC2850574 (Biochemistry, 2010).
Ends that are not written are not given here.

What was measured:
[1] = biological target: IAEDANS-labeled SecAΔ11-Cys-190 (E. coli) (UniProt P10408)
[2] = biological target: SecA-Cys-256 (Escherichia coli, UniProt P10408, C885S/C887S/C896S/C98S/T256C); test: Signal peptide binding to SecA-Cys-256 by fluorescence anisotropy
[3] = biological target: SecAΔ11-Cys-190 (Escherichia coli, UniProt P10408, C885S/C887S/C896S/C98S/N190C); test: Binding of SP22 to monomeric SecAΔ11-Cys-190 by FRET titration
[4] = test system: SecA-Cys-190; test: Specificity control: scrambled SP22 binding/FRET; set-up: species or system Escherichia coli; conditions: 7 μM IAEDANS-labeled SecA-Cys-190, 18 μM IANBD-labeled scrambled SP22; data not shown
[5] = biological target: LamB signal peptide signal peptide (Escherichia coli) (UniProt P02943); conditions: cited from earlier work
[6] = biological target: IANBD-labeled alkaline phosphatase signal peptide SP22 (E. coli); test: fluorescence polarisation
[7] = biological target: T1, wild-type SecA (Escherichia coli SecA ATPase) (E. coli, UniProt P10408 9-836); test: fluorescence polarisation
[8] = biological target: T1, wild-type SecA (Escherichia coli SecA …); test: fluorescence polarisation; remark: listed apart in the source

IAEDANS-labeled SecAΔ11-Cys-190 (from UniProt P10408 9-836) (natural protein)
Kd [1]: 0.23 µM

MKQSTIALALLPLLFTPVTKAC-NH2 [SP22]
Kd [2]: 1.1 ± 0.2 µM
Kd [3]: 3.06 ± 1.13 µM

PLMDTEITLKFLSPLQALKTVC-NH2 [scrambled SP22]
high-affinity binding and FRET [4]: neither high-affinity binding nor FRET was detected

SecA (from UniProt P10408)
Kd [5]: 100 µM

SecA-Cys-256 (unlabeled) (from UniProt P10408 9-836) (natural protein)
Kd [6]: 1.1 µM

B1: IANBD-labeled alkaline phosphatase signal peptide SP22 (peptide)
chain: MKQSTIALALLPLLFTPVTKAC(IANBD)-NH2
stoichiometry N [7]: 1 mole ratio of signal peptide to SecA
Kd [8]: 1.4 ± 0.2 µM
